Data from paper PMC10889563, “The Multienzyme Complex Nature of Dehydroepiandrosterone Sulfate Biosynthesis” (International Journal of Molecular Sciences, 2024).

B1: sulfotransferase SULT1E1 (enzyme, human, UniProt P49888 1-294, looked up)
chain: MNSELDYYEKFEEVHGILMYKDFVKYWDNVEAFQARPDDLVIATYPKSGTTWVSEIVYMIYKEGDVEKCKEDVIFNRIPFLECRKENLMNGVKQLDEMNSPRIVKTHLPPELLPASFWEKDCKIIYLCRNAKDVAVSFYYFFLMVAGHPNPGSFPEFVEKFMQGQVPYGSWYKHVKSWWEKGKSPRVLFLFYEDLKEDIRKEVIKLIHFLERKPSEELVDRIIHHTSFQEMKNNPSTNYTTLPDEIMNQKLSPFMRKGITGDWKNHFTVALNEKFDKHYEQQMKESTLKFRTEI
notes: cytosolic sulfotransferase SULT1E1, human, recombinant; The oligomeric state in the assay is not known to the authors; source: E. coli DH5α, purified (Ni-NTA agarose, hydroxyapatite)

Tests used:
Conditions in all cases: both partners purified
[1] = molecular target: T1, full-length steroid 17-alpha-hydroxylase/17,20-lyase (CYP17A1full) (UniProt P05093 1-508); experiment: SPR; SULT1E1 or SULT2A1 covalently immobilised on CM5 chip via amino groups; CYP17A1full, CYP17A1tr or CYB5A injected at 50 to 5000 nM in HBS-EP+ (10 mM HEPES, 150 mM NaCl, 3 mM EDTA, 0.05% P20, pH 7.4), 25 °C; no PAPS; 1:1 Langmuir model
T1 construct: steroid 17-alpha-hydroxylase/17,20 lyase (CYP17A1), full-length recombinant form; also called full-length CYP17A1
T1 sequence (looked up): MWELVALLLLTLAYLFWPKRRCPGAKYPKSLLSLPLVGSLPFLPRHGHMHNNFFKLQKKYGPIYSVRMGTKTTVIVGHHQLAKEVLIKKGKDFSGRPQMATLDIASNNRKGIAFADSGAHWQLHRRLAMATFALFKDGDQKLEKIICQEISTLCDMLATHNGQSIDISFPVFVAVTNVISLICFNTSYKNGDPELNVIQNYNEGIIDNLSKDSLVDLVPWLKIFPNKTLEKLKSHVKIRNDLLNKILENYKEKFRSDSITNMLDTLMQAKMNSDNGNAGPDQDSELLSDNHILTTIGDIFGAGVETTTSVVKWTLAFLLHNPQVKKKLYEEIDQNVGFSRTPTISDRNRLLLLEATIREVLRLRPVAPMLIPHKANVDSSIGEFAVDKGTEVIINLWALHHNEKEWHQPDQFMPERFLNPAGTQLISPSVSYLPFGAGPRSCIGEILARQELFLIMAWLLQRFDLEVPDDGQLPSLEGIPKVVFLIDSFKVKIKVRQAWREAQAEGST

[2] = molecular target: T1, full-length steroid …; experiment: SPR; SULT1E1 or SULT2A1 covalently immobilised on CM5 chip via amino groups; CYP17A1full or CYB5A injected at 50 to 5000 nM in HBS-EP+, 25 °C; with 1 mM PAPS; 1:1 Langmuir model
[3] = molecular target: T2, NADPH-dependent cytochrome P450 reductase (CPR) (UniProt P16435 1-677, FAD and FMN cofactors; species (human assumed, rat possible) and construct limits are only in Figure S5 or cited work); experiment: SPR; CPR covalently immobilised on CM5 chip via amino groups; SULT1E1 or SULT2A1 as analyte; HBS-EP+, 25 °C; with 1 mM PAPS; 1:1 Langmuir model
[4] = molecular target: T2, NADPH-dependent cytochrome P450 …; experiment: SPR; CPR covalently immobilised on CM5 chip via amino groups; SULT1E1 or SULT2A1 as analyte; HBS-EP+, 25 °C; no PAPS; 1:1 Langmuir model
sulfotransferase SULT1E1 [5] = molecular target: B1; experiment: SPR; SULT1E1 or SULT2A1 covalently immobilised on CM5 chip via amino groups; CYP17A1full, CYP17A1tr or CYB5A injected at 50 to 5000 nM in HBS-EP+ (10 mM HEPES, 150 mM NaCl, 3 mM EDTA, 0.05% P20, pH 7.4), 25 °C; no PAPS; 1:1 Langmuir model
sulfotransferase SULT1E1 [6] = molecular target: B1; experiment: SPR; SULT1E1 or SULT2A1 covalently immobilised on CM5 chip via amino groups; CYP17A1full or CYB5A injected at 50 to 5000 nM in HBS-EP+, 25 °C; with 1 mM PAPS; 1:1 Langmuir model

T2 sequence (P16435 whole entry): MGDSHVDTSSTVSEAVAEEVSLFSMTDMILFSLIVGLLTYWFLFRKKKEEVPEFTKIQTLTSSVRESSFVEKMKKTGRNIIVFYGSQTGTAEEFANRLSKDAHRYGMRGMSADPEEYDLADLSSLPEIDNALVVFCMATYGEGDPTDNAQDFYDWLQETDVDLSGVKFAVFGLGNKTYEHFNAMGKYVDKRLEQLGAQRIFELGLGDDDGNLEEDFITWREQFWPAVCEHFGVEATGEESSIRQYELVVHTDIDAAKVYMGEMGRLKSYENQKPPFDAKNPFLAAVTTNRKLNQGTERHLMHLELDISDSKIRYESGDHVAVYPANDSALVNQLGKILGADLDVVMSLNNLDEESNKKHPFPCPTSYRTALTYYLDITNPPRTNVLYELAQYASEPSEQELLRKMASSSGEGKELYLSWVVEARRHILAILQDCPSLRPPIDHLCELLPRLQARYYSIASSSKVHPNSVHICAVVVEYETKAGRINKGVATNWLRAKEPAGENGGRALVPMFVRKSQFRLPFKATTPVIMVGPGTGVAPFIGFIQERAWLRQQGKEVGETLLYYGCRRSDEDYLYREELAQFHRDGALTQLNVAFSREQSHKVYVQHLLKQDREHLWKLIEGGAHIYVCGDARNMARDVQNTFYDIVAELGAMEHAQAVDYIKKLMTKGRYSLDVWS

Binder | Kd [1] [nM] | koff [1] [s⁻¹] | kon [1] [M⁻¹ s⁻¹] | Kd [2] [nM] | koff [2] [s⁻¹] | kon [2] [M⁻¹ s⁻¹] | Kd [3] [nM] | koff [3] [s⁻¹] | kon [3] [M⁻¹ s⁻¹] | Kd [4] [nM] | koff [4] [s⁻¹] | kon [4] [M⁻¹ s⁻¹] | Kd (sulfotransferase SULT1E1 [5]) [nM] | koff (sulfotransferase SULT1E1 [5]) [s⁻¹] | kon (sulfotransferase SULT1E1 [5]) [M⁻¹ s⁻¹] | Kd (sulfotransferase SULT1E1 [6]) [nM] | koff (sulfotransferase SULT1E1 [6]) [s⁻¹] | kon (sulfotransferase SULT1E1 [6]) [M⁻¹ s⁻¹]
B1 | 196 ± 21 | 0.00058 | 2960 | 138 ± 15 | 0.00076 | 5520 |  |  |  |  |  |  |  |  |  |  |  | 
sulfotransferase SULT2A1 (enzyme, human, UniProt Q06520 1-285, looked up, cytosolic sulfotransferase SULT2A1, human, recombinant; source: E. coli Rosetta, purified (Ni-NTA agarose, hydroxyapatite)) MSDDFLWFEGIAFPTMGFRSETLRKVRDEFVIRDEDVIILTYPKSGTNWLAEILCLMHSKGDAKWIQSVPIWERSPWVESEIGYTALSETESPRLFSSHLPIQLFPKSFFSSKAKVIYLMRNPRDVLVSGYFFWKNMKFIKKPKSWEEYFEWFCQGTVLYGSWFDHIHGWMPMREEKNFLLLSYEELKQDTGRTIEKICQFLGKTLEPEELNLILKNSSFQSMKENKMSNYSLLSVDYVVDKAQLLRKGVSGDWKNHFTVAQAEDFDKLFQEKMADLPRELFPWE | 124 ± 11 | 0.00055 | 4450 | 105 ± 12 | 0.00137 | 13100 | 957 ± 89 | 0.00051 | 670 | 1370 ± 126 | 0.00078 | 570 |  |  |  |  |  | 
microsomal cytochrome b5 (CYB5A) (natural protein, UniProt P00167 1-134, looked up, microsomal cytochrome b5 (CYB5A), recombinant) MAEQSDEAVKYYTLEEIQKHNHSKSTWLILHHKVYDLTKFLEEHPGGEEVLREQAGGDATENFEDVGHSTDAREMSKTFIIGELHPDDRPKLNKPPETLITTIDSSSSWWTNWVIPAISAVAVALMYRLYMAED |  |  |  |  |  |  |  |  |  |  |  |  | 71 ± 8 | 0.00098 | 13800 | 88 ± 8 | 0.00067 | 7650
